Patent US20200140517A1 (CASE WESTERN RESERVE UNIVERSITY, published 2020)
Where “and” joins values, the source holds several entries; their conditions need not be identical. Equal values may be shown once. Positions of bridges follow the written chain, without caps; N, C: chain ends. No end group written: not given here.

Key:
[1] = molecular target: T1, A isoform of the insulin receptor (UniProt P06213-2 28-1370, limits assumed); experiment: receptor binding affinity, method not described; reference: human insulin; data not shown
T1 construct: also called IR-A

[2] = substrate: B isoform of the insulin receptor (UniProt P06213); experiment: receptor binding affinity, method not described; reference: wild type human insulin

affinity relative to human insulin [1]: 120 percent | fold reduction of affinity relative to wild type human insulin [2]: 5 fold and 10 fold
B1: 4SS 81-04 (SCI-2; 57-mer single-chain insulin analogue with fourth disulfide bridge, cystine B4-A10) (ligand)
chain: FVNCHLCGSHLVEALYLVCGERGFFYTDPTEEGPRRGIVEQCCHSCCSLEQLENYCN
modifications: disulfide 4-46; also: three canonical disulfides, pairing not given here
notes: Single polypeptide chain (B domain, 6-residue C domain EEGPRR, A domain), expressed in Pichia pastoris; Cys at B4 and A10 form a fourth disulfide bridge beside the three canonical ones; also called 57mer SCI-2
